# Experimental data published in publication PMC10916747, “Safety, biodistribution and radiation dosimetry of the Arg-Gly-Asp peptide ^99mTc-maraciclatide in healthy volunteers” (Nuclear Medicine Communications, 2024).
# Numbered stars: 1 amine (or outer) side, 2 acyl side, 3 side chain; on linkers, the order of the positions; unused ones are H or OH. Bridge positions count the residues as written; N and C are the ends. Side chains are listed from the residue outwards. Peptide text beside a SMILES is read from it. * marks the point of attachment. X1 = C/C(=N\O)C(C)(C)NCCC(CCNC(C)(C)/C(C)=N/O)CCN*; Glutaryl = O=C(CCCC(=O)[*:2])[*:1]; X2 = NC(=O)COCC(=O)NCCOCCOCCOCCN*
# Assays:
# healthy volunteers [1] = test: Phase 1 safety assessment (adverse events, vital signs, ECG, laboratory parameters)
# Protocol: In 2003, a phase 1, placebo-controlled, observer-blinded, randomised, single ascending-dose study was performed. The study aimed to assess the safety of three intravenous levels of maraciclatide and the biodistribution and radiation dosimetry of ^99mTc-maraciclatide in healthy volunteers, assessing the potential of ^99mTc-maraciclatide as a radiopharmaceutical for diagnostic imaging.
# Safety data on vital signs (heart rate, blood pressure, temperature, and oxygen saturation), electrocardiograms (ECG), laboratory parameters and physical examinations (general appearance, lung, abdominal, cardiovascular, and neurological exam by a qualified clinician) were measured prior to administration, and at multiple time points up to 7 days following administration. Based on clinical assessment, new abnormal or worsening clinical findings were defined as a change from the participant’s normal baseline to abnormal. All abnormal changes were recorded as adverse events (AEs).
# Safety assessments were performed by an observer blinded to the administration of the placebo and ^99mTc-maraciclatide. A thorough review of safety data was performed before the decision was made to escalate to the higher dose in participants.
# clinical = test: clinical; set-up: species or system human; conditions: human, in vivo, iv, total radioactivity
# Protocol: (§1) On the day of administration before the administration of ^99mTc-maraciclatide, a transmission scan was obtained. The counts acquired from a flood or line source with and without the participant on the imaging couch were utilised to calculate body attenuation. Following intravenous administration of ^99mTc-maraciclatide, whole-body gamma scintigraphy was performed at 5 min post-administration up to 24 h as described below (section 2.6). Additional anterior and posterior planar images of the chest (45 min and 1 h 45 min, post-administration) and the pelvis (1 h 15 min and 2 h post-administration) were obtained for each participant.
# (§2) Regions of interest (ROIs) were selected from organs and tissues on the whole-body scintigraphic images showing significant activity uptake. ^99mTc activity in ROIs was calculated using the methodology described in Medical Internal Radiation Dose (MIRD) Pamphlet No. 16 [15].
# (§3) To calculate ^99mTc-maraciclatide ex-vivo activity, blood, plasma, urine, and faeces were collected at various time points after administration. Blood and plasma samples were collected at 10 min, 30 min, 1 h, 2 h, 4 h, 8 h, 24 h, 48 h, 72 h, and 7 days post-administration. Concentrations of maraciclatide in plasma were assayed using the LC-MS method (LOQ was 0.5 ng/ml). Urine was also collected at the same time points (if possible) up to 24 h post-administration. Faecal samples were collected as voided for up to 24 h post-administration. Assayed samples for ^99mTc-maraciclatide content were then measured using a gamma counter.
# (§4) The biodistribution of ^99mTc was determined by whole-body conjugate view imaging in conjunction with extracorporeal activity measurements in whole blood, plasma, voided urine, and faeces, as described above. Simultaneous anterior and posterior whole-body images were acquired beginning nominally at 5 min, 15 min, 30 min, 60 min, 90 min, 3 h, 6 h and 12 h post-administration. A final anterior and posterior image pair was acquired at a ninth time-point between 21 and 24 h post-administration. Quantitative analysis of the incorporated data at multiple time points yielded biodistribution data consisting of activity in 10 specified organs or tissues [brain, salivary glands, thyroid gland, lungs, heart, spleen, liver, gallbladder, gastrointestinal (GI) tract and urinary bladder]. The remaining ^99mTc activity in other tissues was grouped within a ‘remaining tissues’ category. For each organ or tissue of interest, the ^99mTc activity was decay-corrected to the administration time and normalised to the injected activity. The temporal variation of this normalised and decay-corrected activity was then fit by one of several analytical functions, which was then integrated to yield the cumulated activity for that organ normalised to the injected activity.
# healthy volunteers [2] = test: clinical; set-up: species or system human; conditions: in vivo
# Protocol: as §1, §2, §3, §4
# healthy volunteers [3] = test: clinical; set-up: species or system human; conditions: in vivo; remark: listed apart in the source
# Protocol: as §3
# Concentrations of maraciclatide in plasma were assayed using the LC-MS method (LOQ was 0.5 ng/ml). The mean apparent terminal elimination half-life was approximately 1 h. Overall, systemic clearance was approximately 6.7 ml/min/kg, whilst the mean apparent volume of distribution was approximately 520 ml/kg. The majority of ^99mTc activity was excreted through the urinary pathway and GI tract, 55% and 16%, respectively.
# healthy volunteers [4] = test system: healthy volunteers; set-up: species or system human; conditions: in vivo
# Protocol: The mean absorbed doses per unit injected activity to 24 target organs were evaluated from this matrix of normalised cumulated activity values, using the MIRD schema, for a 70-kg adult human. The cumulated activity in the urinary bladder contents and voided urine was calculated using a dynamic urinary bladder model for a 3.5-h voiding interval. Cumulative activities in the GI tract were calculated using a dynamic model that assumed that activity enters the GI tract solely through hepatobiliary drainage. […] At later times, it was possible to identify the ^99mTc associated with the GI tract as predominantly that in the luminal contents. The overall time course of ^99mTc activity in a ROI set over the GI tract was typically that of an initial rapid decrease which then slowed to approach the amount present in the luminal contents. This observation was considered to be due to an initial rapid uptake and subsequent tissue clearance of ^99mTc from the GI tract walls combined with the slow introduction of ^99mTc into the GI contents via hepatobiliary transport. The activity in the luminal contents was isolated by first modelling the GI tract wall tissue clearance by the renormalised time course of activity measured in a ROI set over a region of soft tissue (the quadriceps femoris in one leg). […] The ED per unit injected activity was subsequently calculated from the ensemble of organ-absorbed dose values.
# The effective dose (ED) was calculated from the ensemble of organ-absorbed dose values at 7.8 ± 0.8 μSv/MBq.
# integrin receptor αvβ3 = conditions: background statement, no reference printed; listed as 99mTc-Maraciclatide; cited from earlier work
# αvβ5 integrins = conditions: background statement, no reference printed; cited from earlier work
# Text: As such, it holds promise as a novel diagnostic imaging agent for a range of pathological conditions. […] Methods A phase 1, randomised, placebo-controlled study assessed the safety, biodistribution and radiation dosimetry of ^99mTc-maraciclatide in healt ...
smiles,measurement,setting,value
"C/C(=N\O)C(C)(C)NCCC(CCNC(=O)CCCC(=O)NCCCC[C@@H]1NC(=O)CSC[C@@H](C(=O)NCCOCCOCCOCCNC(=O)COCC(N)=O)NC(=O)[C@H](Cc2ccccc2)NC(=O)[C@@H]2CSSC[C@H](NC1=O)C(=O)N[C@@H](CCCNC(=N)N)C(=O)NCC(=O)N[C@@H](CC(=O)O)C(=O)N2)CCNC(C)(C)/C(C)=N/O (some centres unmarked) [^99mTc-maraciclatide, metal not drawn] ({CH2CO}-K([Glutaryl-X1])CRGDCFC-X2; disulfide 2-6; thioether N-8; N-terminus and C-terminus assumed)",number of non-serious AEs,healthy volunteers [1]; 24 participants receiving protocol-stipulated dose,31
same,deaths,"healthy volunteers [1]; all dose groups, single i.v.",no deaths
same,intensity of related AEs,healthy volunteers [1]; in vivo,mild intensity
same,"laboratory, ECG and vital signs parameters",healthy volunteers [1]; in vivo,no clinically important safety trends
same,participants experiencing non-serious AEs (number),healthy volunteers [1]; in vivo,17
same,participants experiencing non-serious AEs (percent),healthy volunteers [1]; in vivo,71%
same,participants with AEs attributed to the agent,healthy volunteers [1]; in vivo,6
same,participants with AEs that required medical treatment (number),healthy volunteers [1]; in vivo,3
same,participants with AEs that required medical treatment (percent),healthy volunteers [1]; in vivo,13%
same,participants with reduction in red blood cell count (number),healthy volunteers [1]; in vivo,4
same,participants with reduction in red blood cell count (percent),healthy volunteers [1]; in vivo,17%
same,time to resolution of related AEs,healthy volunteers [1]; in vivo,≤ 25 h
same,dose excreted,clinical; 99mTc activity excreted through the GI tract,16%
same,dose excreted,clinical; 99mTc activity excreted through the urinary pathway,55%
same,"normalised cumulated activity, combined walls of the small intestine and upper and lower large intestine",healthy volunteers [2],0.9 ± 0.2 MBq*h/MBq
same,"normalised cumulated activity, contents of the upper large intestine",healthy volunteers [2],0.3 ± 0.1 MBq*h/MBq
same,"normalised cumulated activity, liver",healthy volunteers [2],0.8 ± 0.2 MBq*h/MBq
same,"normalised cumulated activity, lung",healthy volunteers [2],0.4 ± 0.1 MBq*h/MBq
same,uptake in the red bone marrow,healthy volunteers [2],too low to be quantified
same,systemic urinary clearance,healthy volunteers [3],approximately 6.7 ml/min/kg
same,mean effective dose (ED) per unit injected activity,healthy volunteers [4],7.8 μSv/MBq
same,"Absorbed dose per unit administered activity, Adrenal glands",healthy volunteers [4]; iv,4.7 μGy/MBq
same,"Absorbed dose per unit administered activity, Bone surfaces",healthy volunteers [4]; iv,4.5 μGy/MBq
same,"Absorbed dose per unit administered activity, Brain",healthy volunteers [4]; iv,1.3 μGy/MBq
same,"Absorbed dose per unit administered activity, Breasts",healthy volunteers [4]; iv,1.8 μGy/MBq
same,"Absorbed dose per unit administered activity, Gallbladder wall",healthy volunteers [4]; iv,8.7 μGy/MBq
same,"Absorbed dose per unit administered activity, Heart wall",healthy volunteers [4]; iv,6.1 μGy/MBq
same,"Absorbed dose per unit administered activity, Kidneys",healthy volunteers [4]; iv,16.5 μGy/MBq
same,"Absorbed dose per unit administered activity, Liver",healthy volunteers [4]; iv,11.1 μGy/MBq
same,"Absorbed dose per unit administered activity, Lower large intestine wall",healthy volunteers [4]; iv,11.7 μGy/MBq
same,"Absorbed dose per unit administered activity, Lungs",healthy volunteers [4]; iv,7.3 μGy/MBq
same,"Absorbed dose per unit administered activity, Muscle",healthy volunteers [4]; iv,2.8 μGy/MBq
same,"Absorbed dose per unit administered activity, Ovaries",healthy volunteers [4]; iv,6.3 μGy/MBq
same,"Absorbed dose per unit administered activity, Pancreas",healthy volunteers [4]; iv,5.0 μGy/MBq
same,"Absorbed dose per unit administered activity, Red marrow",healthy volunteers [4]; iv,3.0 μGy/MBq
same,"Absorbed dose per unit administered activity, Skin",healthy volunteers [4]; iv,1.5 μGy/MBq
same,"Absorbed dose per unit administered activity, Small intestine wall",healthy volunteers [4]; iv,8.9 μGy/MBq
same,"Absorbed dose per unit administered activity, Spleen",healthy volunteers [4]; iv,16.1 μGy/MBq
same,"Absorbed dose per unit administered activity, Stomach",healthy volunteers [4]; iv,3.8 μGy/MBq
same,"Absorbed dose per unit administered activity, Testes",healthy volunteers [4]; iv,2.8 μGy/MBq
same,"Absorbed dose per unit administered activity, Thymus gland",healthy volunteers [4]; iv,2.5 μGy/MBq
same,"Absorbed dose per unit administered activity, Thyroid gland",healthy volunteers [4]; iv,4.9 μGy/MBq
same,"Absorbed dose per unit administered activity, Upper large intestine wall",healthy volunteers [4]; iv,14.7 μGy/MBq
same,"Absorbed dose per unit administered activity, Urinary bladder wall",healthy volunteers [4]; iv,36.2 μGy/MBq
same,"Absorbed dose per unit administered activity, Uterus",healthy volunteers [4]; iv,7.5 μGy/MBq
same,affinity to αvβ3,integrin receptor αvβ3,high affinity
same,affinity to αvβ5,αvβ5 integrins,high affinity
